Measured values from publication doi:10.1101/2025.11.26.690658 (bioRxiv, 2025).
Positions count from the first letter of the chain named. Values belong to the molecule of their own block, whether it stands above or below them.

Experiments:
[1] = biological target: McsAZ2-McsB complex (heterotetramer of a McsB dimer and two McsAZ2) (Bacillus subtilis strain 168) (UniProt P37569); assay: cryo-EM structure
[2] = biological target: T1, McsB(R194A), the McsB chain of the McsAZ2(R115A)-McsB(R194A) mutant (Bacillus subtilis strain 168, UniProt P37570 1-363, R194A); assay: SEC
T1 sequence: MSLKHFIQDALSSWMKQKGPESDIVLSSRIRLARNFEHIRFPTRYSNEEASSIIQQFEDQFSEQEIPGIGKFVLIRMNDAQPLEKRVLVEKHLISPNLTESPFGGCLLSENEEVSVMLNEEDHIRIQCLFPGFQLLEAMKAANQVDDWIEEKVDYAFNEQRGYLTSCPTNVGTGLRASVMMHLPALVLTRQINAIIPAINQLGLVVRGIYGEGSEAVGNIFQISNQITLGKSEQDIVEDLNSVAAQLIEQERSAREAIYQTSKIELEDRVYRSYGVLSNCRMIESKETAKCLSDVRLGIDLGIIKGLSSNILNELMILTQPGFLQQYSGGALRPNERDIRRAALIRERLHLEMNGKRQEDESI

cryo-EM structure = biological target: the molecule itself; assay: cryo-EM structure

stoichiometry N [1]: 2 tetramers
Molecule: McsAZ2-McsB complex (heterotetramer of a McsB dimer and two McsAZ2) (from UniProt P37569;P37570)

binding result [2]: binds
B1: CtsR (B. subtilis transcriptional repressor), full length (natural protein)
chain: MGHNISDIIEQYLKRVLDQNGKEILEIKRSEIADKFQCVPSQINYVINTRFTSERGYIVESKRGGGGYIRIIKIKMNNEVVLINNIISQINTHLSQAASDDIILRLLEDKVISEREAKMMVSVMDRSVLHIDLPERDELRARMMKAMLTSLKLK

B2: McsB (B. subtilis protein-arginine kinase subunit), coexpressed with McsAZ2 (enzyme)
chain: T1 sequence with A194R
modifications: phosphoarginine at 194 and 333 (pR194, pR333)
stoichiometry N (cryo-EM structure): 2

binding result [2]: binds
B3: CtsRCTD (C-terminal domain of CtsR, residues 75–154) (domain or fragment)
chain: KMNNEVVLINNIISQINTHLSQAASDDIILRLLEDKVISEREAKMMVSVMDRSVLHIDLPERDELRARMMKAMLTSLKLK
